# Laboratory results as given in patent US5019384A, “Immunonodulating compositions and their use” (Massachusetts Institute of Technology, priority 1989, dated 1991).
# “Also recorded” adds a separate entry of the source.
# Assays:
# I-E^d [1] = target: T1, I-E^d (Mus musculus, UniProt P01904+P01915); experiment: Gel filtration binding of 125I-labeled peptide to purified Ia (I-E^d)
# T1 construct: endogenous in cells
# T1 sequence (P01904 26-255): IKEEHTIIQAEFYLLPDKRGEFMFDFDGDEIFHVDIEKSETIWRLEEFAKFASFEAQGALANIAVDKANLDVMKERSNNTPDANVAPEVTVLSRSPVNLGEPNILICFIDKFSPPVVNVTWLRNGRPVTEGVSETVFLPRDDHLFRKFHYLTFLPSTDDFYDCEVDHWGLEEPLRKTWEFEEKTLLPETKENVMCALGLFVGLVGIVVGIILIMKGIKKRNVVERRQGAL
# T1 sequence (P01915 27-264 limits assumed): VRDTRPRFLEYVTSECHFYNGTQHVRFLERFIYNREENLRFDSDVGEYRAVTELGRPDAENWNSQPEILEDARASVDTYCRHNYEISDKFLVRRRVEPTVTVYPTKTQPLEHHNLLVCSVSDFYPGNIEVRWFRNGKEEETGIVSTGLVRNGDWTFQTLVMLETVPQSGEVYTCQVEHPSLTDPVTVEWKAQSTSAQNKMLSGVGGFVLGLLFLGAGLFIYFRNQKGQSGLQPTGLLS
# Description: The peptide P12-26 was modified by the addition of a tyrosine residue to the N-terminus to serve as an acceptor for the ^125 I.
# (§1) Ia-molecules were purifed from Nonidet P-40 (NP-40) lysates of A20 (H2^d) or AKTB-1b (H2^k) cells by affinity chromatography using the following monoclonal antibodies: MK-D6 (I-A^d -specific), 10-3-6 (I-A^k -specific) specific) or 14-4-4 (I-E^d/k -specific) coupled to Sepharose 4B beads (Pharmacia Fine Chemicals, Sweden).
# (§2) A gel filtration assay was used for determining the degree of association between immunogenic peptides and Ia. The assay is described in: Buus, S. et al., Proceeding of the National Academy of Sciences, U.S.A. (1986) 83:3968, the teaching of which is incorporated herein by reference. Briefly, 40 μmole of purified Ia in 1 percent NP-40/PBS was mixed with 0.2 μmole of ^125 I-labeled peptide (approximately 200,000 cpm for each experiment) and incubated for 48 hours at room temperature to allow for formation of the Ia-peptide complex. The Ia-peptide complexes were separated from free peptide by gel filtration and the percentage of peptide bound to Ia was calculated as the ratio of the ^125 I-labeled peptide in the void volume to the total ^125 I-labeled peptide recovered.
# I-E^d [2] = target: T1, I-E^d; experiment: Inhibition of binding of 125I-labeled Myoglobin (P132-153) to I-E^d; details: 125I Myoglobin (P132-153) bound to I-E^d; read-out: Concentration (μM) of P12-26 Required for 50 percent Inhibition
# Description: as §1
# as §2, with “Briefly, 40 μmole of purified Ia in 1 percent NP-40/PBS was mixed with 0.2 μmole of ^125 I-labeled peptide (approximately 200,000 cpm for each experiment) and incubated for 48 hours at room temperature to allow for formation of the Ia-peptide complex.” left out
# For the inhibition assay a dose-range of unlabeled cI P12-26 peptide was added to the incubation mixture of Ia and ^125 I-labeled peptide (600, 120, 24, ad 48 μM). The degree of association between Ia and labeled peptide was determined by gel filtration as described in Table 1. […] The concentration of inhibitory peptide required to obtain a 50 percent inhibition of binding was calculated. […]
# I-A^k = target: T2, I-A^k (Mus musculus, UniProt P01910+P06343); experiment: Inhibition of binding of 125I-labeled Lysozyme (Hen) (P46-61) to I-A^k; details: for Competition with the lysozyme-derived peptide for binding to I-A^k (in words): up to 2500 μM
# T2 construct: endogenous in cells
# Description: as §1, §2
# For the inhibition assay a dose-range of unlabeled cI P12-26 peptide was added to the incubation mixture of Ia and ^125 I-labeled peptide ([…] μM). The degree of association between Ia and labeled peptide was determined by gel filtration as described in Table 1. The percentage of peptide bound in the absence of inhibitors is 10.6 percent for ovalbumin (323 to 339)/I-A^d; 6.5 percent for myoglobulin 132 to 153)/I-E^d; 21.5 percent for lysozyme (46 to 61)/I-A^k; 2.5 percent for cytochrome C (88 to 104)/I-E^k. The concentration of inhibitory peptide required to obtain a 50 percent inhibition of binding was calculated. Each experiment was repeated three times.
# [3] = tested on: monoclonal antibody specific for (NANP)50; experiment: Inhibition of binding of monoclonal antibody specific for (NANP)50 to (NANP)50; design: species or system mice; details: radiolabelled (NANP)50 bound to microwells
# Description: The above study was repeated except the antigen was radiolabelled (NANP)50 which was bound to microwells.
substance,measurement,setting,value
P12-26: derived from the cI protein of bacteriophage lambda (residues 12-26),Binding to the I-E^d molecule (in words),I-E^d [1],binds most tightly; also recorded: binds best; also recorded: binds exceedingly well
same,IC50,I-E^d [2],4 µM
same,IC50,"I-A^k; 125I Lysozyme (Hen) (P46-61) bound to I-A^k, read-out: Concentration (μM) of P12-26 Required for 50 percent Inhibition",> 2500 µM
same,Competition with the lysozyme-derived peptide for binding to I-A^k (in words),I-A^k,is not observed
same,Competition with the lysozyme-derived peptide for binding to I-A^k (in words),I-A^k; listed as P1226,No inhibition of binding was detected
same,Inhibition of binding of monoclonal antibody specific for (NANP)50,[3],did not inhibit binding
